Here are results for 2 substances from PMC10586804.

Assay [1] has as its target vasopressin type 2 receptor (UniProt P30518).
Assay [2] has the same target. The source holds these as a separate data set.
In assay [3] the target is chimeric V2R harboring the carboxy-terminal tail of the β2-adrenergic receptor.

mini G protein mGs: in assay [1], the AVP-induced maximal efficacy of Rluc-mGs recruitment to early endosomes (EbBRET with rGFP-Rab5), AVP dose-response, 45 min, parental HEK293 cells is 0.18 ΔEbBRET; the AVP-induced maximal efficacy of Rluc-mGs recruitment to early endosomes (EbBRET with rGFP-Rab5), AVP dose-response, 45 min, Δβarr1/2 HEK293 cells was 0.074 ΔEbBRET; the AVP-induced maximal efficacy of Rluc-mGs recruitment to the plasma membrane (EbBRET with rGFP-CAAX), AVP dose-response, 10 min, parental HEK293 cells is 0.324 ΔEbBRET; the AVP-induced maximal efficacy of Rluc-mGs recruitment to the plasma membrane (EbBRET with rGFP-CAAX), AVP dose-response, 10 min, Δβarr1/2 HEK293 cells is 0.376 ΔEbBRET. In assay [1], the Potency of AVP (LogEC50) for Rluc-mGs recruitment to early endosomes (EbBRET with rGFP-Rab5), 45 min, parental HEK293 cells is -8.37 LogEC50; the Potency of AVP (LogEC50) for Rluc-mGs recruitment to early endosomes (EbBRET with rGFP-Rab5), 45 min, Δβarr1/2 HEK293 cells is -8.34 LogEC50; the Potency of AVP (LogEC50) for Rluc-mGs recruitment to the plasma membrane (EbBRET with rGFP-CAAX), 10 min, parental HEK293 cells was -7.9 LogEC50; the Potency of AVP (LogEC50) for Rluc-mGs recruitment to the plasma membrane (EbBRET with rGFP-CAAX), 10 min, Δβarr1/2 HEK293 cells is -7.99 LogEC50. Further, in assay [2], the AVP-mediated maximal efficacy of Rluc-mGs recruitment to early endosomes (EbBRET with rGFP-Rab5), AVP dose-response, 45 min, cells expressing V2R was 0.167 ΔEbBRET; the AVP-mediated maximal efficacy of Rluc-mGs recruitment to the plasma membrane (EbBRET with rGFP-CAAX), AVP dose-response, 10 min, cells expressing V2R was 0.3 ΔEbBRET; the Potency of AVP (logEC50) for Rluc-mGs recruitment to early endosomes (EbBRET with rGFP-Rab5), 45 min, cells expressing V2R is -8.65 logEC50; the Potency of AVP (logEC50) for Rluc-mGs recruitment to the plasma membrane (EbBRET with rGFP-CAAX), 10 min, cells expressing V2R is -8.07 logEC50. Moreover, in assay [2], the Transduction coefficient log(τ/Ka) of Rluc-mGs recruitment to early endosomes (EbBRET with rGFP-Rab5), cells expressing V2R is 8.63 log(τ/Ka) and the Transduction coefficient log(τ/Ka) of Rluc-mGs recruitment to the plasma membrane (EbBRET with rGFP-CAAX), cells expressing V2R was 7.98 log(τ/Ka). Besides, in assay [3], the AVP-mediated maximal efficacy of Rluc-mGs recruitment to early endosomes (EbBRET with rGFP-Rab5), AVP dose-response, 45 min, cells expressing V2β2AR is 0.15 ΔEbBRET; the AVP-mediated maximal efficacy of Rluc-mGs recruitment to the plasma membrane (EbBRET with rGFP-CAAX), AVP dose-response, 10 min, cells expressing V2β2AR is 0.392 ΔEbBRET; the Potency of AVP (logEC50) for Rluc-mGs recruitment to early endosomes (EbBRET with rGFP-Rab5), 45 min, cells expressing V2β2AR was -8.34 logEC50; the Potency of AVP (logEC50) for Rluc-mGs recruitment to the plasma membrane (EbBRET with rGFP-CAAX), 10 min, cells expressing V2β2AR is -8.07 logEC50. In assay [3], the Transduction coefficient log(τ/Ka) of Rluc-mGs recruitment to early endosomes (EbBRET with rGFP-Rab5), cells expressing V2β2AR was 8.31 log(τ/Ka) and the Transduction coefficient log(τ/Ka) of Rluc-mGs recruitment to the plasma membrane (EbBRET with rGFP-CAAX), cells expressing V2β2AR is 8.04 log(τ/Ka).
With mini G protein mGsq, in assay [1], the AVP-induced maximal efficacy of Rluc-mGsq recruitment to early endosomes (EbBRET with rGFP-Rab5), AVP dose-response, 45 min, parental HEK293 cells was 0.05 ΔEbBRET; the AVP-induced maximal efficacy of Rluc-mGsq recruitment to early endosomes (EbBRET with rGFP-Rab5), AVP dose-response, 45 min, Δβarr1/2 HEK293 cells is 0.024 ΔEbBRET; the AVP-induced maximal efficacy of Rluc-mGsq recruitment to the plasma membrane (EbBRET with rGFP-CAAX), AVP dose-response, 10 min, parental HEK293 cells is 0.168 ΔEbBRET; the AVP-induced maximal efficacy of Rluc-mGsq recruitment to the plasma membrane (EbBRET with rGFP-CAAX), AVP dose-response, 10 min, Δβarr1/2 HEK293 cells was 0.18 ΔEbBRET. Besides, in assay [1], the Potency of AVP (LogEC50) for Rluc-mGsq recruitment to early endosomes (EbBRET with rGFP-Rab5), 45 min, parental HEK293 cells was -8.38 LogEC50; the Potency of AVP (LogEC50) for Rluc-mGsq recruitment to early endosomes (EbBRET with rGFP-Rab5), 45 min, Δβarr1/2 HEK293 cells is -8.32 LogEC50; the Potency of AVP (LogEC50) for Rluc-mGsq recruitment to the plasma membrane (EbBRET with rGFP-CAAX), 10 min, parental HEK293 cells was -7.81 LogEC50; the Potency of AVP (LogEC50) for Rluc-mGsq recruitment to the plasma membrane (EbBRET with rGFP-CAAX), 10 min, Δβarr1/2 HEK293 cells is -7.95 LogEC50. In addition, in assay [2], the AVP-mediated maximal efficacy of Rluc-mGsq recruitment to early endosomes (EbBRET with rGFP-Rab5), AVP dose-response, 45 min, cells expressing V2R was 0.05 ΔEbBRET; the AVP-mediated maximal efficacy of Rluc-mGsq recruitment to the plasma membrane (EbBRET with rGFP-CAAX), AVP dose-response, 10 min, cells expressing V2R was 0.161 ΔEbBRET; the Potency of AVP (logEC50) for Rluc-mGsq recruitment to early endosomes (EbBRET with rGFP-Rab5), 45 min, cells expressing V2R is -8.44 logEC50; the Potency of AVP (logEC50) for Rluc-mGsq recruitment to the plasma membrane (EbBRET with rGFP-CAAX), 10 min, cells expressing V2R was -7.88 logEC50. Moreover, in assay [2], the Transduction coefficient log(τ/Ka) of Rluc-mGsq recruitment to early endosomes (EbBRET with rGFP-Rab5), cells expressing V2R was 8.31 log(τ/Ka) and the Transduction coefficient log(τ/Ka) of Rluc-mGsq recruitment to the plasma membrane (EbBRET with rGFP-CAAX), cells expressing V2R is 7.9 log(τ/Ka). In assay [3], the AVP-mediated maximal efficacy of Rluc-mGsq recruitment to early endosomes (EbBRET with rGFP-Rab5), AVP dose-response, 45 min, cells expressing V2β2AR was 0.061 ΔEbBRET; the AVP-mediated maximal efficacy of Rluc-mGsq recruitment to the plasma membrane (EbBRET with rGFP-CAAX), AVP dose-response, 10 min, cells expressing V2β2AR was 0.183 ΔEbBRET; the Potency of AVP (logEC50) for Rluc-mGsq recruitment to early endosomes (EbBRET with rGFP-Rab5), 45 min, cells expressing V2β2AR is -7.82 logEC50; the Potency of AVP (logEC50) for Rluc-mGsq recruitment to the plasma membrane (EbBRET with rGFP-CAAX), 10 min, cells expressing V2β2AR was -7.97 logEC50. In addition, in assay [3], the Transduction coefficient log(τ/Ka) of Rluc-mGsq recruitment to early endosomes (EbBRET with rGFP-Rab5), cells expressing V2β2AR is 7.91 log(τ/Ka) and the Transduction coefficient log(τ/Ka) of Rluc-mGsq recruitment to the plasma membrane (EbBRET with rGFP-CAAX), cells expressing V2β2AR is 7.99 log(τ/Ka).
